Laboratory results reported in article PMC10746170.

System: T1, His6-GacA (Acinetobacter baumannii (strain ATCC 17978?)), ORF:4711fff2
T1 sequence: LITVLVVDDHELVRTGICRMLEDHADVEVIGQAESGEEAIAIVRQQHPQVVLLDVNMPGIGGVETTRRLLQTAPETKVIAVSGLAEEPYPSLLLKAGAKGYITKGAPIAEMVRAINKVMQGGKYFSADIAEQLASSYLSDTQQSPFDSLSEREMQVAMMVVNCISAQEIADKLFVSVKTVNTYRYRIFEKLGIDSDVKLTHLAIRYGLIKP
Test: EMSA
Settings: 20 mM Tris pH 8.0, 150 mM NaCl, 10 mM EDTA, 100 ug/mL BSA, 20 mM acetyl phosphate, 10% glycerin, 1 mM DTT; ~10 nM probe; 20 min, room temperature; 6% native …

| Sequence | binding |
| --- | --- |
| CTCGTCATTATTAAGGCACGAGCTTGAATTAAACTGCACATCTAGTGTCAGTTGCTTATAGTGGCTATTGTCTTAGTATTTTTAAAAATCTGCAATATCTTTTTTTTAAAATTACCTAAGAAAATAAAAATATTTCAGAAAACTTTTTAGTTTTAAAAAATTTATAGTTTCTAATTATAAATAGCTTGCACAAAAAAACCAGCTTTAAAGCTGGTCTATTTTTAAATTATCACGGCGTATGAAGCTGTGTTTCCGTGTACGGACCTATTTCCGTTTCCTGTATTCCTCCGCTTCCGGAAT (double strand) [dotI promoter probe] | binds |
| TTCTATAAATAAGAAATAAAGAATTTATTAATGCGTATAGTGCACAGCAAATATTATAAATTAATAAAGGTTGGTTAAAGGTTTGTTTTACAAGTATATGAAATGAATTAAAATTTTTTAATTTTATTTTTACGGTGTAAGCTTGTGATAAATAAAAATTAATAGCTAGAAAACTTATTTAAAACTTTTTAGTCTAATAGCATATTAAATTAAATTGAGCTTTATTATTTATAGCGAAATATATAACACTCGCTGAAACTTGGTTGATTTTTAATAATCAAGATAATAAAGGAAAAGGAT (double strand) [PDC promoter probe] | binds |
